# Assay results reported in the DeepSol protein solubility set.
# Test: soluble on expression in E. coli; label from the status in PepcDB or PDB records
row,Sequence,soluble on expression in E. coli
1,MGSDKIHHHHHHMTEGWDALDAELEQWAAAGLRLPLWWRDDDAVTPTDALTRLEAMATRLDLPVHLAVIPKAAEDALAQHVSQSSHLIPVVHGWAHVNHANPDKKTCEFPSTRPVDEALTDAEQGVERLKHLFGARLQPMFVPPWNRISPAMLPWLAGLGFAAISTYGPRKRTQAASGLVQINTHIDPIDWKGGRGLMPEAQILQKLVANLQARRSGQQDNAEPLGLLTHHLVHTDEVWEFCDTLLRRLLEGPAHPWRFNERIN,not soluble
2,MGSDKIHHHHHHMTENQTAHVRALILDATPLITQSYTHYQNYAQSFYTTPTVFQEIKDAQARKNLEIWQSLGTLKLVHPSENSIAKVSTFAKLTGDYSVLSANDLHILALTYELEIKLNNGDWRLRKKPGDALDASKADVGTDGKQKLTEDNKKEEDSESVPKKKNKRRGGKKQKAKREAREAREAENANLELESKAEEHVEEAGSKEQICNDENIKESSDLNEVFEDADDDGDWITPENLTEAIIKDSGEDTTGSLGVEASEEDRHVALNRPENQVALATGDFAVQNVALQMNLNLMNFMSGLKIKRIRNYMLRCHACFKIFPLPKDGKPKHFCASCGGQGTLLRCAVSVDSRTGNVTPHLKSNFQWNNRGNRYSVASPLSKNSQKRYGKKGHVHSKPQENVILREDQKEYEKVIKQEEWTRRHNEKILNNWIGGGSADNYISPFAITGLKQHNVRIGKGRYVNSSKRRS,not soluble
3,MGSDKIHHHHHHMTGVQFIDVTDSEAIFDDNQWDAVVLVTHGLDAIAQEELAMLASHGAQVDARVGRSTTLLFAPGLAGGRLIVAPVADGDSDIQDVRGYSDAARQGIKVAFDAGARRPLLIVTPSTQARYAQSMGVAALGCAQALWQSLERREVLGEMDNISQIGLLVDDKAGELLCAIEAGKHLARDLCGTEPERMSAPAFAQYCVDALEGLDLTMSVVEDRDVLERDYPLLSAVGRASFAVSRHQPRVVKLEYKAEGPIERSYFFAGKGVVYDTGGADLKVGGAMAGMSRDKGGAAAVAGLMKTLALLKPKGVRVVAELGLVRNSIGSEAFVTDEIITSHAGVRVRIGNTDAEGRLVLADLLSHLRLKAQDAVAPQLFSVATLTGHVVRAYGGYTAVVENAVARQQQVGDSLQTISEAWGEPIEVSRLRRDDYQKIVDPSGAADVLSSNNAPSSVTARGHQYPAAFLLKASGLEAHGLTSDKPLAYTHVDIAGSATEGDPLYGTPTAAPLVSLCQLIRG,not soluble
4,MGSDKIHHHHHHMTIMILREIIDELSYQLKQRRIINVCVSPAYTSVMLDDQSIGISHTITDGEIEGAGEIIGKNAYDVVINNLDSNLQRSLSLAILNALGSMIDFTQGDPINLYSGGKLCVFGFSPQLSYSNFDSVIVYDFMSTENKKVGNTEIKPYSSLSREVCSTALIFASSIVNNTIDRIISQISANHLILTGISSVDAPITLKNHGFEVLGKLFPVEKYRVFRTICEGGSNKLLSKYIMRYFKKL,not soluble
5,MGSDKIHHHHHHMTKFLIDSLQPKLVAQFARIIDRKQLAQSYLFVGPKGAGKLALAEWIALRLFCQNVQDGAPCGQCPECERILNHNHPDVMVVKTETQSIKVDDIRGLKQEMSKTGVEGNQRVFVVEDADKMTAGAANSLLKFFEEPVPGMTVILTATSKNQLLPTILSRAQVITFQSPDRSAVIAKLEEGGATSQMARVAGRLTGNVADAQALLASATFQDRVTKVFQLLERLADHDPESFVRVQTQLLPIAKDADSQRQVLALIGLAYADALNQHFQVTSMQQLDLPAIGVLAQRSSEQLTTALQAILTAQVRLSQNVTFQSATEQLMLKLLEG,not soluble
6,MGSDKIHHHHHHMTKIKHIFSDLDGTLLDDQGKISKKTQEVIENSNLPFSLVSARAPQAMESLINQLNLKSSQVAFNGGLIFAKNEVIKANPMVHASAQELIKTIKKDYPEINLSLYSLSDWYVEKIDKDIEQEMQFTPQVPKLVDLETLITERPRLEIFKILLITPNESKLEEIKKHLEKLNFPDIIIQKTWETYLEITHLEAQKAKAVQFIAQREQLEQSELAAFGDNENDLSMLKAVGLPIVMANASDDLKKIGKVITKSNTEDGVAYGIQKYITDSLF,not soluble
7,MGSDKIHHHHHHMTKKLTNQLIDVTSGRNFRELGGYETNSGKKIKMHKLLRTGNLADLSPFDKQFLTDYGVKYDVDFRSKEEVERQPDRVPDGVEYIYDPVFSEDLTNSSKSINDLNTQASDDADFGFNHMHYAYEDMIESESAQKAYRKFFDVLLKNDVEGESVIFHCTAGKDRTGFGALLILSALGVPFNTIKKDYLLTNITTKEFVESMVEHARQNGRNENVLQSIRDIQSVRAEYIDHAVKIINDDYGSIHNYLRDMMKLSSADIMKLRNIYLED,not soluble
8,MGSDKIHHHHHHMTLEQLLMFNTVALAGSLKAASDKLHKTQPAISQSIKQLESQLDVVLFDRQGYRLALTQEGRKLLQYAQRVLNEAQEMRQVAKHLAIGNEASITLAFEASFNLARILPMLERTQLEFPHTQIILKQEYLTGALEALNQGKADIAISAGGIESMRSNHFELGFLFSGSLLDVASPRLLSRYPSLSHVKELVNEYQIVIQDTGTGTANIEFGVQAGQRRWYVNDFYTKKMLIQSGMGWGKLPYYMVEEALANGSLHPLELKERQNLIQLDYYVMRRPQSPLGPVAQALWENLVQLATKQS,not soluble
9,MGSDKIHHHHHHMTLVASSCTDVLDQMPTTEDTSKEVYADAANYKKVLAKIYASYVLAGQGQGGDNGDLKSINKQDFSRGYFNLQEAATDEVANTWLSGNNLSDLTYISWDAKDSWVSDSYYWLFFNIALCNEFLRHCSDEEIARFSEAEQTEIRTFRSEARFMRSFSYWMVLDLYRQGPKVDENTPVIGYIPEAYDGIGMFDFIESELKELVAEGVSSALPATNEYGRASKPVAWALLARLYLNSAIYRGNVDTKYYTECITACKQVISNPAFYLEPEYAKLFNADNHKRTHEILFAMVCDATTSVTWGGGTYIICGSCGNSSTQDPAKYGLSNGWGMFRARGEMTAKFGDIATTKDSRAMFYTDGQAQFFTGAIDNQAEGYFFEKFSNLTDEGVAASNSAATGCSTDYPLLRLADIYLMAAEAQLRGGTGLSRAEALELVNQVRLRAYNQDESGKISDSDFTLDFILDERARELYLESVRRTDLIRFNKFVSADYIWQWKGGVLDGRAVNKKYNIYPIPDTDLTANPNLHNPLY,not soluble
10,MGSDKIHHHHHHMTNENLCAGRNRYDGVSIDFFSDADLRAIDSATMDVFQNPGIQVSDAESRALFKEAGCDVNEKTMVVKIPEHVVRRAIMTAPSKITLYGREKQHTFTQQAGGKVHYTCFGTGVKMCKYEAPGVFKTVDSTEEDLANTARVCDWADNIDSYSLAVSARDWAGKGAQDVHETFTPLMNTSKHFFHIDPVGENVEYYWDILKAYYGGDEEQARSRPIFSELLCPTSPLKIGTNACQLILKSVNFGIPINVISMAMSGASCPVHLAGTLVTHNAEVLSGIVLAQLASPGAKVWYGSSTTAFDLKHGTAPVGSPELGLISAAVAKLGQYYDLPTYVAST,not soluble
11,MGSDKIHHHHHHMTNLTSTHEVLAIGRLGVDIYPLQSGVGLADVQSFGKYLGGSAANVSVAAARHGHNSALLSRVGNDPFGEYLLAELERLGVDNQYVATDQTFKTPVTFCEIFPPDDFPLYFYREPKAPDLNIESADVSLDDVREADILWFTLTGFSEEPSRGTHREILTTRANRRHTIFDLDYRPMFWESPEEATKQAEWALQHSTVAVGNKEECEIAVGETEPERAGRALLERGVELAIVKQGPKGVMAMTKDETVEVPPFFVDVINGLGAGDAFGGALCHGLLSEWPLEKVLRFANTAGALVASRLECSTAMPTTDEVEASLNQKV,not soluble
12,MGSDKIHHHHHHMTNPISLKDPLKLPCGAVIKNRLIKSAMSDSLADGEGNATNLQARLYERWAKSGLGLSVIGEVQVDPRFPEKPGNLVLADGMDLAALRELTSRAAINGAHIWPQLSHAGGLSHLPISQPKGPSALNISQFQCAGMSIDEIYQLPDMYAKSAMLAKDVGFTGVQIHAGHGFLLSQFLSPLFNHRQDQYGGSIEARCRIIVEIIAKVRSAVGDSFPIGIKINSTDQLEGGLTQEDALAAIRILDQTSLDLIEISGGSYFPGAKSSSDSSTKGPYFAEFAATAKRLSNVPIAVTGGFKTYAQALKVIESGAVDFVGLARALVITPELAKDWLIGTATAPSFPRFKAPPQGGITAWFTMLLTAIANDSEESFELELLPALHLYEELDDARCDKWMQKFEIK,not soluble
